Target: T1, recombinant MyoD protein (UniProt P10085 1-318)
T1 sequence (looked up): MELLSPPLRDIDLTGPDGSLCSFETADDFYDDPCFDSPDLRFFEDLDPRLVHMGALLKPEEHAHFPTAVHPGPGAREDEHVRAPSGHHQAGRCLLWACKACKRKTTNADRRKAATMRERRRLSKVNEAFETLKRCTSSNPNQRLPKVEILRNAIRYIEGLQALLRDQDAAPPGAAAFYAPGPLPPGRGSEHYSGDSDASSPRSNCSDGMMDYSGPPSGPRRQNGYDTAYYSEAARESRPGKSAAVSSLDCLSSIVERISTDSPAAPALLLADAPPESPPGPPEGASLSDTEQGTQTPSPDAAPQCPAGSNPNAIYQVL
Assay: pull-down

fold retrieval with E-box motif DNA against without: 1.6 fold
B1: FoxO3 (natural protein, mouse (endogenous in C2C12), UniProt Q9WVH4 1-672, looked up)
chain: MAEAPASPVPLSPLEVELDPEFEPQSRPRSCTWPLQRPELQASPAKPSGETAADSMIPEEDDDEDDEDGGGRASSAMVIGGGVSSTLGSGLLLEDSAMLLAPGGQDLGSGPASAAGALSGGTPTQLQPQQPLPQPQPGAAGGSGQPRKCSSRRNAWGNLSYADLITRAIESSPDKRLTLSQIYEWMVRCVPYFKDKGDSNSSAGWKNSIRHNLSLHSRFMRVQNEGTGKSSWWIINPDGGKSGKAPRRRAVSMDNSNKYTKSRGRAAKKKAALQAAPESADDSPSQLSKWPGSPTSRSSDELDAWTDFRSRTNSNASTVSGRLSPILASTELDDVQDDDGPLSPMLYSSSASLSPSVSKPCTVELPRLTDMAGTMNLNDGLAENLMDDLLDNIALPPSQPSPPGGLMQRGSSFPYTAKSSGLGSPTGSFNSTVFGPSSLNSLRQSPMQTIQENRPATFSSVSHYGNQTLQDLLASDSLSHSDVMMTQSDPLMSQASTAVSAQNARRNVMLRNDPMMSFAAQPTQGSLVNQNLLHHQHQTQGALGGSRALSNSVSNMGLSDSSSLGSAKHQQQSPASQSMQTLSDSLSGSSLYSASANLPVMGHDKFPSDLDLDMFNGSLECDMESIIRSELMDADGLDFNFDSLISTQNVVGLNVGNFTGAKQASSQSWVPG

From publication PMC5587775 (Nucleic Acids Research, 2017)
